According to US20210130436A1 (published 2021):

T1: CD96 (UniProt P40200 22-585, limits assumed)
T1 construct: whole, on cells
T1 sequence (looked up): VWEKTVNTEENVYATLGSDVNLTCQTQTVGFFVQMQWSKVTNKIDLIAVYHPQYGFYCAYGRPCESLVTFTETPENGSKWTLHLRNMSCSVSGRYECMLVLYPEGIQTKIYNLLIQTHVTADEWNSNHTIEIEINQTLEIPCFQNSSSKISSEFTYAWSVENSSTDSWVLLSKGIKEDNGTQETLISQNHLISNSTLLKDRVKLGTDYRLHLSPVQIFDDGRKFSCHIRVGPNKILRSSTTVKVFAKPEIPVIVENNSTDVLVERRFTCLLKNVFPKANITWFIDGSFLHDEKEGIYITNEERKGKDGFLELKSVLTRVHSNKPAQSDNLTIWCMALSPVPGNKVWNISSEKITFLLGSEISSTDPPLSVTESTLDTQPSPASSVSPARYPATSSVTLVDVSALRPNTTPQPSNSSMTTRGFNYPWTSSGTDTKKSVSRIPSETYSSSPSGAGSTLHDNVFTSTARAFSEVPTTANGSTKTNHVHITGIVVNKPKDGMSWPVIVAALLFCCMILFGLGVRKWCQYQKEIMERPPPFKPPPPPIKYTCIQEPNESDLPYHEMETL

T2: TIGIT (Homo sapiens (Human), UniProt Q495A1 22-244)
T2 sequence: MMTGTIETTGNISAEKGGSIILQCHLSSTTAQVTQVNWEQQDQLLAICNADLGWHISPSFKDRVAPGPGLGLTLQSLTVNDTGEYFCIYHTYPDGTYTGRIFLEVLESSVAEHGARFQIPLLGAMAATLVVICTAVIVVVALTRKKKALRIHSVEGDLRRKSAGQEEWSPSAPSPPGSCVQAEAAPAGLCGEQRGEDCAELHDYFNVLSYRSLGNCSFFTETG

T3: CD226 (Homo sapiens (Human), UniProt Q15762 19-336)
T3 sequence: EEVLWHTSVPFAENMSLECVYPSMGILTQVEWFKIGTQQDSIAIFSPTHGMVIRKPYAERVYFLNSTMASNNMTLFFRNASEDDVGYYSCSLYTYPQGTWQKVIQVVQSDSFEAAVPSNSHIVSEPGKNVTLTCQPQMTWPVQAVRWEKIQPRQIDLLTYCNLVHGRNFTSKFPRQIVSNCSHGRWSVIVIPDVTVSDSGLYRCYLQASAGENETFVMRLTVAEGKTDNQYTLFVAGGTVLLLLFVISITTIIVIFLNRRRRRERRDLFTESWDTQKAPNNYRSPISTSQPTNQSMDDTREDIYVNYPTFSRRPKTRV


How the values were obtained:
human CD28 = human CD28 (human, UniProt P10747 19-220); assay: flow cytometry, Jurkat cells (CD28)
human PD-L1 on CHO cells = target: T4, human PD-L1 on CHO cells (human, UniProt Q9NZQ7 19-290); assay: flow cytometry, CHO cells stably expressing PD-L1
T4 construct: whole, on cells; CHO cells stably expressing PD-L1; also called huPD-L1

[1] = target: T5, CD28 on Jurkat/IL2 reporter cells (human, UniProt P10747 19-220); assay: flow cytometry, Jurkat cells (CD28)
T5 construct: whole, on cells; Endogenous CD28 of Jurkat cells; also called Jurkats (CD28)

CD96 = target: T1, CD96; assay: flow cytometry, Fc fusion at 100 nM, CD96-transfected cells
TIGIT = target: T2, TIGIT; assay: flow cytometry, Fc fusion at 100 nM, TIGIT-transfected cells
CD226 = target: T3, CD226; assay: flow cytometry, Fc fusion at 100 nM, CD226-transfected cells

T4 sequence (Q9NZQ7 19-290): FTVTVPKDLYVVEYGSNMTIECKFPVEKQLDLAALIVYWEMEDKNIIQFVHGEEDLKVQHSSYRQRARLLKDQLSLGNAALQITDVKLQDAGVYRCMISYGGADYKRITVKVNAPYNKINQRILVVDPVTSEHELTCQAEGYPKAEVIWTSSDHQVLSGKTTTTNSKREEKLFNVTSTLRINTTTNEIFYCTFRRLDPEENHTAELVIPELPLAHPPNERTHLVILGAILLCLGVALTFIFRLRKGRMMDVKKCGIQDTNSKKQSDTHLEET

| MFI at 33.3 nM (human CD28) [MFI] | MFI at 33.3 nM (human PD-L1 on CHO cells) [MFI] | MFI at 33.3 nM [1] [MFI] | MFI at 100 nM (CD96) [MFI] | MFI at 100 nM (TIGIT) [MFI] | MFI at 100 nM (CD226) [MFI] | Binder |
| --- | --- | --- | --- | --- | --- | --- |
|  |  |  | 1820 | 2290 | 2020 | variant CD155 IgV-Fc S52Q (Fc fusion, not shown: a dimerising Fc or GST) WPPPGTGDVVVQAPTQVPGFLGDSVTLPCYLQVPNMEVTHVSQLTWARHGEQGSMAVFHQTQGPSYSESKRLEFVAARLGAELRNASLRMFGLRVEDEGNYTCLFVTFPQGSRSVDIWLRVL |
|  |  |  | 1650 | 1930 | 2000 | variant CD155 IgV-Fc S52M/Q62Y (Fc fusion, not shown: a dimerising Fc or GST) WPPPGTGDVVVQAPTQVPGFLGDSVTLPCYLQVPNMEVTHVSQLTWARHGEMGSMAVFHQTYGPSYSESKRLEFVAARLGAELRNASLRMFGLRVEDEGNYTCLFVTFPQGSRSVDIWLRVL |
|  |  |  | 2360 | 2970 | 3170 | variant CD155 IgV-Fc S52R/Q62F/L104Q/G111R (Fc fusion, not shown: a dimerising Fc or GST) WPPPGTGDVVVQAPTQVPGFLGDSVTLPCYLQVPNMEVTHVSQLTWARHGERGSMAVFHQTFGPSYSESKRLEFVAARLGAELRNASLRMFGLRVEDEGNYTCQFVTFPQRSRSVDIWLRVL |
|  |  |  | 1580 | 2290 | 2390 | variant CD155 IgV-Fc T45Q/S52L/L104E/G111R (Fc fusion, not shown: a dimerising Fc or GST) WPPPGTGDVVVQAPTQVPGFLGDSVTLPCYLQVPNMEVTHVSQLQWARHGELGSMAVFHQTQGPSYSESKRLEFVAARLGAELRNASLRMFGLRVEDEGNYTCEFVTFPQRSRSVDIWLRVL |
|  |  |  | 1630 | 1940 | 1910 | variant CD155 IgV-Fc S52W/L104E (Fc fusion, not shown: a dimerising Fc or GST) WPPPGTGDVVVQAPTQVPGFLGDSVTLPCYLQVPNMEVTHVSQLTWARHGEWGSMAVFHQTQGPSYSESKRLEFVAARLGAELRNASLRMFGLRVEDEGNYTCEFVTFPQGSRSVDIWLRVL |
|  |  |  | 1530 | 2860 | 5940 | variant CD155 IgV-Fc T45Q/S52L/V57L/L104E (Fc fusion, not shown: a dimerising Fc or GST) WPPPGTGDVVVQAPTQVPGFLGDSVTLPCYLQVPNMEVTHVSQLQWARHGELGSMALFHQTQGPSYSESKRLEFVAARLGAELRNASLRMFGLRVEDEGNYTCEFVTFPQGSRSVDIWLRVL |
|  |  |  | 1710 | 1990 | 2040 | variant CD155 IgV-Fc S52W (Fc fusion, not shown: a dimerising Fc or GST) WPPPGTGDVVVQAPTQVPGFLGDSVTLPCYLQVPNMEVTHVSQLTWARHGEWGSMAVFHQTQGPSYSESKRLEFVAARLGAELRNASLRMFGLRVEDEGNYTCLFVTFPQGSRSVDIWLRVL |

More lines, now with the values behind:

| Binder | MFI at 33.3 nM (human CD28) [MFI] | MFI at 33.3 nM (human PD-L1 on CHO cells) [MFI] | MFI at 33.3 nM [1] [MFI] | MFI at 100 nM (CD96) [MFI] | MFI at 100 nM (TIGIT) [MFI] | MFI at 100 nM (CD226) [MFI] |
| --- | --- | --- | --- | --- | --- | --- |
| WT CD80 ECD-Fc (Fc fusion, not shown: a dimerising Fc or GST, Wild-type control) VIHVTKEVKEVATLSCGHNVSVEELAQTRIYWQKEKKMVLTMMSGDMNIWPEYKNRTIFDITNNLSIVILALRPSDEGTYECVVLKYEKDAFKREHLAEVTLSVKADFPTPSISDFEIPTSNIRRIICSTSGGFPEPHLSWLENGEELNAINTTVSQDPETELYAVSSKLDFNMTTNHSFMCLIKYGHLRVNQTFNWNTTKQEHFPDN | 31 |  |  |  |  |  |
| variant CD80 IgV-Fc E35D/L97R (Fc fusion, not shown: a dimerising Fc or GST) VIHVTKEVKEVATLSCGHNVSVEELAQTRIYWQKDKKMVLTMMSGDMNIWPEYKNRTIFDITNNLSIVILALRPSDEGTYECVVLKYEKDAFKREHRAEVTLSVKAD |  | 2610 | 44.6 |  |  |  |
| variant CD80 IgV-Fc E35D/N48K/L72V (Fc fusion, not shown: a dimerising Fc or GST) VIHVTKEVKEVATLSCGHNVSVEELAQTRIYWQKDKKMVLTMMSGDMKIWPEYKNRTIFDITNNLSIVILAVRPSDEGTYECVVLKYEKDAFKREHLAEVTLSVKAD |  | 3030 | 582 |  |  |  |
| variant CD80 IgV-Fc H18Y/E35D/M47V/N48K (Fc fusion, not shown: a dimerising Fc or GST) VIHVTKEVKEVATLSCGYNVSVEELAQTRIYWQKDKKMVLTMMSGDVKIWPEYKNRTIFDITNNLSIVILALRPSDEGTYECVVLKYEKDAFKREHLAEVTLSVKAD |  | 6460 | 841 |  |  |  |
| variant CD80 IgV-Fc E35D/M47V/N48K/L85M (Fc fusion, not shown: a dimerising Fc or GST) VIHVTKEVKEVATLSCGHNVSVEELAQTRIYWQKDKKMVLTMMSGDVKIWPEYKNRTIFDITNNLSIVILALRPSDEGTYECVVMKYEKDAFKREHLAEVTLSVKAD |  | 5660 | 413 |  |  |  |
| variant CD155 IgV-Fc S42N/S52Q/Q62F (Fc fusion, not shown: a dimerising Fc or GST) WPPPGTGDVVVQAPTQVPGFLGDSVTLPCYLQVPNMEVTHVNQLTWARHGEQGSMAVFHQTFGPSYSESKRLEFVAARLGAELRNASLRMFGLRVEDEGNYTCLFVTFPQGSRSVDIWLRVL |  |  |  | 1740 | 2400 | 2150 |
| variant CD155 IgV-Fc S52M (Fc fusion, not shown: a dimerising Fc or GST) WPPPGTGDVVVQAPTQVPGFLGDSVTLPCYLQVPNMEVTHVSQLTWARHGEMGSMAVFHQTQGPSYSESKRLEFVAARLGAELRNASLRMFGLRVEDEGNYTCLFVTFPQGSRSVDIWLRVL |  |  |  | 1610 | 1870 | 1900 |
| variant CD155 IgV-Fc S52M/L104Q (Fc fusion, not shown: a dimerising Fc or GST) WPPPGTGDVVVQAPTQVPGFLGDSVTLPCYLQVPNMEVTHVSQLTWARHGEMGSMAVFHQTQGPSYSESKRLEFVAARLGAELRNASLRMFGLRVEDEGNYTCQFVTFPQGSRSVDIWLRVL |  |  |  | 1630 | 2670 | 2250 |
| variant CD155 IgV-Fc S52E (Fc fusion, not shown: a dimerising Fc or GST) WPPPGTGDVVVQAPTQVPGFLGDSVTLPCYLQVPNMEVTHVSQLTWARHGEEGSMAVFHQTQGPSYSESKRLEFVAARLGAELRNASLRMFGLRVEDEGNYTCLFVTFPQGSRSVDIWLRVL |  |  |  | 1800 | 2660 | 2600 |
| variant CD155 IgV-Fc S42Q (Fc fusion, not shown: a dimerising Fc or GST) WPPPGTGDVVVQAPTQVPGFLGDSVTLPCYLQVPNMEVTHVQQLTWARHGESGSMAVFHQTQGPSYSESKRLEFVAARLGAELRNASLRMFGLRVEDEGNYTCLFVTFPQGSRSVDIWLRVL |  |  |  | 2140 | 2070 | 2230 |
| variant CD155 IgV-Fc S42W (Fc fusion, not shown: a dimerising Fc or GST) WPPPGTGDVVVQAPTQVPGFLGDSVTLPCYLQVPNMEVTHVWQLTWARHGESGSMAVFHQTQGPSYSESKRLEFVAARLGAELRNASLRMFGLRVEDEGNYTCLFVTFPQGSRSVDIWLRVL |  |  |  | 2560 | 2430 | 2130 |
| variant CD155 IgV-Fc S42W/S52Q/V57L/Q62Y (Fc fusion, not shown: a dimerising Fc or GST) WPPPGTGDVVVQAPTQVPGFLGDSVTLPCYLQVPNMEVTHVWQLTWARHGEQGSMALFHQTYGPSYSESKRLEFVAARLGAELRNASLRMFGLRVEDEGNYTCLFVTFPQGSRSVDIWLRVL |  |  |  | 1700 | 1960 | 2140 |
| variant CD155 IgV-Fc S42W/S52R/Q62Y/L104Q (Fc fusion, not shown: a dimerising Fc or GST) WPPPGTGDVVVQAPTQVPGFLGDSVTLPCYLQVPNMEVTHVWQLTWARHGERGSMAVFHQTYGPSYSESKRLEFVAARLGAELRNASLRMFGLRVEDEGNYTCQFVTFPQGSRSVDIWLRVL |  |  |  | 1760 | 1920 | 2300 |
